Measurements reported in patent US20050100554A1 (published 2005).

How the values were obtained:
[1] = target: T1, catenin (cadherin-associated protein), delta 2 (neural plakophilin-related arm-repeat protein) (human, UniProt Q9UQB3 1-1225); assay: Y2H; INT ID 397
T1 construct: also called CTNND2; cbe_1796502
T1 sequence: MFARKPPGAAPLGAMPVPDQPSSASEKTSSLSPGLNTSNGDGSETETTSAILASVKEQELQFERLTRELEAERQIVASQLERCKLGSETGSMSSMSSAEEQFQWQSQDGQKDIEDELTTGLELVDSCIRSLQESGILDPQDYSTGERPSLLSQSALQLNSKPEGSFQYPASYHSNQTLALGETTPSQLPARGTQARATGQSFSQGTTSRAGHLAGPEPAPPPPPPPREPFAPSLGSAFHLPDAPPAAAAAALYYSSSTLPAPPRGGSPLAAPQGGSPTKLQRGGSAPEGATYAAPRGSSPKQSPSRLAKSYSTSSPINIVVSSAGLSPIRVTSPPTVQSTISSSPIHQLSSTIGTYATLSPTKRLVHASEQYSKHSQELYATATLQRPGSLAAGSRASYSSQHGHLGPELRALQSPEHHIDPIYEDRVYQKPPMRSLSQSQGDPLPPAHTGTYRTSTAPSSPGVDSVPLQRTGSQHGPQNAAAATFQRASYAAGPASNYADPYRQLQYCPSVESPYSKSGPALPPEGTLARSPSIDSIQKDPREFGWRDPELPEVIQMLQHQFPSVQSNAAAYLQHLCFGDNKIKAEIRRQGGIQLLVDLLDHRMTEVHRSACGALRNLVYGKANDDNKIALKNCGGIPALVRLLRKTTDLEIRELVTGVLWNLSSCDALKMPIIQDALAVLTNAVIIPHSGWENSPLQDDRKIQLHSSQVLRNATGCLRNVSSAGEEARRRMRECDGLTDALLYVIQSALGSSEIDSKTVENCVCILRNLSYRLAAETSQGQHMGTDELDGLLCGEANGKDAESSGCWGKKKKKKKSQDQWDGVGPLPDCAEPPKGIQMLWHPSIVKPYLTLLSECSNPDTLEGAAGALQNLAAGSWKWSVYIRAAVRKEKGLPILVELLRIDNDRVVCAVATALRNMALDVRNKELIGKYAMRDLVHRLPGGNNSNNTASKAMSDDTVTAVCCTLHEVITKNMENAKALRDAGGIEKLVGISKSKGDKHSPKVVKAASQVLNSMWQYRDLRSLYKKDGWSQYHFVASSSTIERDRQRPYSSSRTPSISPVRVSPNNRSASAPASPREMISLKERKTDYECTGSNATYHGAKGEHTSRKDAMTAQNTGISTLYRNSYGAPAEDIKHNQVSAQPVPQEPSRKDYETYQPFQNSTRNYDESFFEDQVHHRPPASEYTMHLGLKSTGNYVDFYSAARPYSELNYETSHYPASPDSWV

Prey2313 = target: T2, Prey2313 (human, UniProt Q8WV44 21-380); assay: Y2H; INT ID 399
T2 construct: also called Homo sapiens, clone IMAGE: 3625550, mRNA, partial cds; cbe_2685998
T2 sequence: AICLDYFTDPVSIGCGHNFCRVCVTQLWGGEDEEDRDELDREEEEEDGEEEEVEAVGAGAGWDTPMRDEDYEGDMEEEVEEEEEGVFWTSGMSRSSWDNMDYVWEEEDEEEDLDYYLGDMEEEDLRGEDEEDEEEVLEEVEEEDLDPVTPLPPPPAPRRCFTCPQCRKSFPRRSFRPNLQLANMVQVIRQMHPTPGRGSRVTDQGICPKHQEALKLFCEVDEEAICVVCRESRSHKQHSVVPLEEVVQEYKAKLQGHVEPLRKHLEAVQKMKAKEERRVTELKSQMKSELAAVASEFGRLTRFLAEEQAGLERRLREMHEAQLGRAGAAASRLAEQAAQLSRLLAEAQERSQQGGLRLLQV

ribosomal protein L13 = target: T3, ribosomal protein L13 (human, UniProt P26373 1-211); assay: Y2H; INT ID 396
T3 construct: also called RPL13; cbe_1380530

Measured: binding result

B1: Human Papillomavirus 1a E1-E4 (other)
chain: MADNKAPQGLLGLLQYTPTTQPYPRVTPPSNRRPSTTPNSQDRGRPRRSDKDSRKHLYADGLTDGEDPEVPEVEDEEKENQRPLGHPDLSLLRETLEVYTQRLKRDILQDLDDFCRKLGIHPWSV
notes: also called HPV 1a E1-E4; cbe_251740
binds: all assays above
